Reference: patent US20160002311A1 (Novo Nordisk, published 2016)
Where two headings read alike, the source gives them in different places. Numbered stars: 1 amine (or outer) side, 2 acyl side, 3 side chain; on linkers, the order of the positions; unused ones are H or OH. Square brackets hold non-standard residues; d marks the D form. Side chains are listed from the residue outwards. Ends that are not written are not given here. * marks the point of attachment. C18 diacid = O=C(O)CCCCCCCCCCCCCCCCC(=O)*; γGlu = O=C(O)[C@H](CCC(=O)[*:2])N[*:1]; Orn = NCCC[C@H](N)C(=O)O; AEEA = NCCOCCOCC(=O)O

Legend:
glucagon receptor [1] = biological target: T1, glucagon receptor (UniProt P47871 26-477, limits assumed); assay: cell-based or functional assay
glucagon receptor [2] = biological target: T1, glucagon receptor; assay: cell-based or functional assay; remark: listed apart in the source

T1 sequence (P47871 26-477 limits assumed): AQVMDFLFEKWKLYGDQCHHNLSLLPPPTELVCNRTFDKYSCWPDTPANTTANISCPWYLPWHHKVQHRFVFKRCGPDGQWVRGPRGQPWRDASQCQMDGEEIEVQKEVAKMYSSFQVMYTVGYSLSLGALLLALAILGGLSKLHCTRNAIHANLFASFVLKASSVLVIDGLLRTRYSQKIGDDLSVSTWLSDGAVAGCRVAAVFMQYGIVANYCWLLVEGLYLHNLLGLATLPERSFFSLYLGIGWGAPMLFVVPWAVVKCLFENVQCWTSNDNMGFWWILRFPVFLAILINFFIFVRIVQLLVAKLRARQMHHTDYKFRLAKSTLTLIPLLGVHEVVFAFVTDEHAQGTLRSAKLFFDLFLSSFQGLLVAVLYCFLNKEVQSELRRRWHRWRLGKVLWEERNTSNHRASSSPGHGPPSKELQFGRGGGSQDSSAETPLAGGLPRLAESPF

Binder | Assay (I) Glucagon [EC50] (glucagon receptor [1]) [nM] | Assay (I) Glucagon [EC50] (glucagon receptor [2]) [nM]
HSQGTFTSDYSKYLDSKKAQEFV[Orn]([AEEA-AEEA-γGlu-C18 diacid])WLLST | 0.036 | 
HSQGTFTSDYSKYLDSKKAQEFVQWLLNK([AEEA-AEEA-γGlu-C18 diacid]) | 0.053 | 
HSQGTFTSDYSKYLDSKKAQEFVK([AEEA-AEEA-γGlu-C18 diacid])WLLDT | 0.051 | 

Next, values leading:

Assay (I) Glucagon [EC50] (glucagon receptor [1]) [nM] | Assay (I) Glucagon [EC50] (glucagon receptor [2]) [nM] | Binder
 | 0.137 | H[dS]QGTFTSDYSKYLDEQAARDFVK([AEEA-AEEA-γGlu-C18 diacid])WLLNT-NH2 (N-terminus assumed; SMILES CC(C)C[C@H](NC(=O)[C@H](Cc1ccc(O)cc1)NC(=O)[C@H](CCCCN)NC(=O)[C@H](CO)NC(=O)[C@H](Cc1ccc(O)cc1)NC(=O)[C@H](CC(=O)O)NC(=O)[C@H](CO)NC(=O)[C@@H](NC(=O)[C@H](Cc1ccccc1)NC(=O)[C@@H](NC(=O)CNC(=O)[C@H](CCC(N)=O)NC(=O)[C@@H](CO)NC(=O)[C@@H](N)Cc1c[nH]cn1)[C@@H](C)O)[C@@H](C)O)C(=O)N[C@@H](CC(=O)O)C(=O)N[C@@H](CCC(=O)O)C(=O)N[C@@H](CCC(N)=O)C(=O)N[C@@H](C)C(=O)N[C@@H](C)C(=O)N[C@@H](CCCNC(=N)N)C(=O)N[C@@H](CC(=O)O)C(=O)N[C@@H](Cc1ccccc1)C(=O)N[C@H](C(=O)N[C@@H](CCCCNC(=O)COCCOCCNC(=O)COCCOCCNC(=O)CC[C@H](NC(=O)CCCCCCCCCCCCCCCCC(=O)O)C(=O)O)C(=O)N[C@@H](Cc1c[nH]c2ccccc12)C(=O)N[C@@H](CC(C)C)C(=O)N[C@@H](CC(C)C)C(=O)N[C@@H](CC(N)=O)C(=O)N[C@H](C(N)=O)[C@@H](C)O)C(C)C)
0.003 |  | HSQGTFTSDYSKYLDSKKAQEFVQWLLNT [[K^17,K^18, E^21, L^27] Glucagon]
